According to patent US20250129135A1, “Multi-Agonist and Use Thereof” (priority 2021, published 2025):
Residue numbers refer to the chain shown, from its start. Starred links: 1 amine or outer side, 2 acyl side, 3 side chain; linkers in the order of their positions; H or OH if unused. Non-standard residues stand in square brackets, D forms with d. Groups on a side chain read outwards from the residue. No end group written: not given here. *: point of attachment. C20 diacid = O=C(O)CCCCCCCCCCCCCCCCCCC(=O)*; γGlu = O=C(O)[C@H](CCC(=O)[*:2])N[*:1]; αMeF = C[C@](N)(Cc1ccccc1)C(=O)O; AEEA = NCCOCCOCC(=O)O; Ac3c = NC1(C(=O)O)CC1; Aib = CC(C)(N)C(=O)O

T1: human GIP receptor (human, UniProt P48546 22-466)
T1 sequence (looked up): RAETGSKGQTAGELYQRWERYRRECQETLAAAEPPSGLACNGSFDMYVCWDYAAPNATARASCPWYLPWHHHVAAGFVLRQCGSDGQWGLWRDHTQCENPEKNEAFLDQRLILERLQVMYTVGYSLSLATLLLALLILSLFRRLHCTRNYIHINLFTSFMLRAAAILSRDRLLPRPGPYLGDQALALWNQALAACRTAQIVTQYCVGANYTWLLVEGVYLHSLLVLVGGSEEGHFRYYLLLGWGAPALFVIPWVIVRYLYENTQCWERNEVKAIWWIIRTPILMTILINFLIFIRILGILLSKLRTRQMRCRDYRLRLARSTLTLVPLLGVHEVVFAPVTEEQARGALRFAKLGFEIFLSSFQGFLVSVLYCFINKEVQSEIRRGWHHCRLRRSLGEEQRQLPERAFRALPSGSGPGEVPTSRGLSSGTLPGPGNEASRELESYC

B1: Compound 25 (peptide)
peptide: YXQGTXTSDYSIXLDKKAQXAFIEFLLEGRPSSXHPPPS
modifications: Aib at 2; αMeF(2F) at 6; αMeL at 13; Lys 17 side chain AEEAc-AEEAc-γGlu-CO(CH2)18COOH; Aib at 20; Aib at 34; C-terminal amide (NH2)
B2: Compound 28 (peptide)
peptide: Y[Aib]QGT[αMeF]TSDYSIXLDKK([AEEA-AEEA-γGlu-C20 diacid])AQ[Aib]AFIEFLLES[Aib]PSSGAPP[Ac3c]S-NH2
modifications: not fully specified (residue 13); printed as Y-Aib-QGT-αMeF-TSDYSI-αMeF-LDKK(AEEAc-AEEAc-γGlu-CO(CH2)18COOH)AQ-Aib-AFIEFLLES-Aib-PSSGAPP-Ac3c-S-NH2
B3: Compound 15 (peptide)
peptide: YXQGTXTSDYSIFLDKKAQXAFIEFLLESHPSSGAPPPS
modifications: Aib at 2; αMeF at 6; Lys 17 side chain AEEAc-AEEAc-γGlu-CO(CH2)18COOH; Aib at 20; C-terminal amide (NH2)
B4: Compound 17 (peptide)
peptide: B3 peptide with F25Y, S29T, H30G
modifications: Aib at 2; αMeF(2F) at 6; Lys 17 side chain AEEAc-AEEAc-γGlu-CO(CH2)18COOH; Aib at 20; C-terminal amide (NH2)
B5: Compound 20 (peptide)
peptide: B3 peptide with F13X, S29X
modifications: Aib at 2; αMeF(2F) at 6; αMeL at 13; Lys 17 side chain AEEAc-AEEAc-γGlu-CO(CH2)18COOH; Aib at 20; Aib at 29; C-terminal amide (NH2)
B6: Compound 2 (peptide)
peptide: B3 peptide with F13X, F25Y, S29T, P38X
modifications: Aib at 2; αMeF at 6; αMeL at 13; Lys 17 side chain AEEAc-AEEAc-γGlu-CO(CH2)18COOH; Aib at 20; Ac3c at 38; C-terminal amide (NH2)
B7: Compound 21 (peptide)
peptide: B3 peptide with S29G, H30G, A35Q
modifications: Aib at 2; αMeF(2F) at 6; Lys 17 side chain AEEAc-AEEAc-γGlu-CO(CH2)18COOH; Aib at 20; C-terminal amide (NH2)
B8: Compound 30 (peptide)
peptide: B3 peptide with F13X, S29T, H30X, P38X
modifications: Aib at 2; αMeF at 6; αMeL at 13; Lys 17 side chain AEEAc-AEEAc-γGlu-CO(CH2)18COOH; Aib at 20; Aib at 30; Ac3c at 38; C-terminal amide (NH2)
B9: Compound 22 (peptide)
peptide: B1 peptide with R30G, X34G, H35Q
modifications: Aib at 2; αMeF(2F) at 6; αMeL at 13; Lys 17 side chain AEEAc-AEEAc-γGlu-CO(CH2)18COOH; Aib at 20; C-terminal amide (NH2)
B10: Compound 27 (peptide)
peptide: B3 peptide with F13X, F25Y
modifications: Aib at 2; αMeF at 6; αMeF at 13; Lys 17 side chain AEEAc-AEEAc-γGlu-CO(CH2)18COOH; Aib at 20; C-terminal amide (NH2)
B11: Compound 26 (peptide)
peptide: B3 peptide with F13X
modifications: Aib at 2; αMeF at 6; αMeL at 13; Lys 17 side chain AEEAc-AEEAc-γGlu-CO(CH2)18COOH; Aib at 20; C-terminal amide (NH2)
B12: Compound 18 (peptide)
peptide: B3 peptide with F25Y, S29X
modifications: Aib at 2; αMeF(2F) at 6; Lys 17 side chain AEEAc-AEEAc-γGlu-CO(CH2)18COOH; Aib at 20; Aib at 29; C-terminal amide (NH2)
B13: Compound 31 (peptide)
peptide: B3 peptide with F13X, S29X, P38X
modifications: Aib at 2; αMeF(2F) at 6; αMeL at 13; Lys 17 side chain AEEAc-AEEAc-γGlu-CO(CH2)18COOH; Aib at 20; Aib at 29; Ac3c at 38; C-terminal amide (NH2)
B14: Compound 19 (peptide)
peptide: B3 peptide with F13X, S29T, H30G
modifications: Aib at 2; αMeF(2F) at 6; αMeL at 13; Lys 17 side chain AEEAc-AEEAc-γGlu-CO(CH2)18COOH; Aib at 20; C-terminal amide (NH2)
B15: Compound 29 (peptide)
peptide: B3 peptide with F25Y, H30X, P38X
modifications: Aib at 2; αMeF at 6; Lys 17 side chain AEEAc-AEEAc-γGlu-CO(CH2)18COOH; Aib at 20; Aib at 30; Ac3c at 38; C-terminal amide (NH2)
B16: Compound 16 (peptide)
peptide: B3 peptide with S29X
modifications: Aib at 2; αMeF at 6; Lys 17 side chain AEEAc-AEEAc-γGlu-CO(CH2)18COOH; Aib at 20; Aib at 29; C-terminal amide (NH2)
B17: Compound 32 (peptide)
peptide: B3 peptide with F25Y, S29X, P38X
modifications: Aib at 2; αMeF(2F) at 6; Lys 17 side chain AEEAc-AEEAc-γGlu-CO(CH2)18COOH; Aib at 20; Aib at 29; Ac3c at 38; C-terminal amide (NH2)
B18: Compound 23 (peptide)
peptide: YXQGTXTSDYSIXLDKKAQXAFIEYLLETGPSSGQPPPS
modifications: Aib at 2; αMeF(2F) at 6; αMeL at 13; Lys 17 side chain AEEAc-AEEAc-γGlu-CO(CH2)18COOH; Aib at 20; C-terminal amide (NH2)
B19: Compound 1 (peptide)
peptide: B18 peptide with Q35A, P38X
modifications: Aib at 2; αMeF at 6; αMeL at 13; Lys 17 side chain AEEAc-AEEAc-γGlu-CO(CH2)18COOH; Aib at 20; Ac3c at 38; C-terminal amide (NH2)
B20: Compound 38 (peptide)
peptide: B1 peptide with G29T, R30G
modifications: Aib at 2; αMeF(2F) at 6; αMeL at 13; Lys 17 side chain AEEAc-AEEAc-γGlu-CO(CH2)18COOH; Aib at 20; Aib at 34; C-terminal amide (NH2)

target: human GCG receptor (human, UniProt P47871 26-477); experiment: cell-based or functional assay
Sequence (P47871 26-477): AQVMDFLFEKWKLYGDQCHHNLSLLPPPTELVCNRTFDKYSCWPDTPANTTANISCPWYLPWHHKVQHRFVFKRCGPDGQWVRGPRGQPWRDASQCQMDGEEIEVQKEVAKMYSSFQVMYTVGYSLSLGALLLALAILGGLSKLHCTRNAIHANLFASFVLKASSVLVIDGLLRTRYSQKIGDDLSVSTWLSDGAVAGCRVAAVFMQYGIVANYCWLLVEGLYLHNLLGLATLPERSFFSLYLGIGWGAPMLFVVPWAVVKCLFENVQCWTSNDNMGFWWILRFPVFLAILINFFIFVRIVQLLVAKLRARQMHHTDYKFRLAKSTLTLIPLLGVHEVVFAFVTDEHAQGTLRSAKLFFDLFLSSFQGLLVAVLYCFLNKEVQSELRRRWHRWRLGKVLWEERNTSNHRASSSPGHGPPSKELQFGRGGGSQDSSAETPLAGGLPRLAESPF

Row | Binder | cAMP EC50, HEK-293 cells stably overexpressing human GCG R | cAMP Rel. A (%) against human GCG, human GCG R cells
1 | B1 | 0.034 nM | 168%
2 | B2 | 0.154 nM | 37%
3 | B3 | – | 41%
4 | B4 | – | 163%
5 | B5 | – | 248%
6 | B6 | 0.232 nM | 24.6%
7 | B7 | 0.025 nM | 228%
8 | B8 | 0.173 nM | 33%
9 | B9 | 0.017 nM | 335%
10 | B10 | – | 96.6%
11 | B11 | – | 43.9%
12 | B12 | 0.026 nM | 219%
13 | B13 | – | 211%
14 | B14 | 0.029 nM | 197%
15 | B15 | 0.069 nM | 82.6%
16 | B16 | – | 33.9%
17 | B17 | 0.017 nM | 335%
18 | B18 | 0.025 nM | 228%
19 | B19 | – | 57.6%
20 | B20 | 0.068 nM | –

target: human GLP-1 receptor (human, UniProt P43220 24-463); experiment: cell-based or functional assay

Row | Binder | cAMP EC50, HEK-293 cells stably overexpressing human GLP-1 R | cAMP Rel. A (%) against human GLP-1 (7-37), human GLP-1 R cells
21 | B1 | 0.031 nM | 142%
22 | B2 | 0.024 nM | 183%
23 | B3 | 0.023 nM | 191%
24 | B4 | 0.011 nM | 400%
25 | B5 | 0.01 nM | 440%
26 | B6 | 0.026 nM | 169%
27 | B7 | 0.005 nM | 880%
28 | B8 | 0.02 nM | 220%
29 | B9 | – | 733%
30 | B10 | 0.016 nM | 275%
31 | B11 | 0.022 nM | 200%
32 | B12 | 0.012 nM | 367%
33 | B13 | 0.012 nM | 367%
34 | B14 | 0.009 nM | 489%
35 | B15 | 0.016 nM | 275%
36 | B16 | 0.02 nM | 220%
37 | B17 | 0.014 nM | 314%
38 | B18 | 0.005 nM | 880%

target: T1, human GIP receptor; experiment: cell-based or functional assay

Row | Binder | cAMP EC50, CHO cells stably overexpressing human GIP R | cAMP Rel. A (%) against human GIP, human GIP R cells
39 | B1 | 0.013 nM | 1390%
40 | B2 | 0.011 nM | 1650%
41 | B3 | – | 548%
42 | B4 | – | 953%
43 | B5 | – | 3020%
44 | B6 | 0.025 nM | 724%
45 | B7 | 0.008 nM | 2260%
46 | B8 | 0.015 nM | 1210%
47 | B9 | 0.007 nM | 2590%
48 | B10 | 0.023 nM | 787%
49 | B11 | 0.007 nM | 2590%
50 | B12 | 0.021 nM | 862%
51 | B13 | – | 2010%
52 | B14 | 0.008 nM | 2260%
53 | B15 | 0.309 nM | 58.6%
54 | B16 | – | 335%
55 | B17 | 0.011 nM | 1650%
56 | B18 | 0.007 nM | 2590%
57 | B19 | 0.015 nM | 1210%
58 | B20 | 0.013 nM | –
